Test results: PMC9935396, “Structures of transcription preinitiation complex engaged with the +1 nucleosome” (Nature Structural & Molecular Biology, 2022)

Target: T1, Tfb2 (p52), subunit of TFIIH (S. cerevisiae, UniProt Q02939 1-513)
T1 construct: Tfb2 (p52 in human), subunit of S. cerevisiae TFIIH; Stood in the assay as a subunit of TFIIH
T1 sequence: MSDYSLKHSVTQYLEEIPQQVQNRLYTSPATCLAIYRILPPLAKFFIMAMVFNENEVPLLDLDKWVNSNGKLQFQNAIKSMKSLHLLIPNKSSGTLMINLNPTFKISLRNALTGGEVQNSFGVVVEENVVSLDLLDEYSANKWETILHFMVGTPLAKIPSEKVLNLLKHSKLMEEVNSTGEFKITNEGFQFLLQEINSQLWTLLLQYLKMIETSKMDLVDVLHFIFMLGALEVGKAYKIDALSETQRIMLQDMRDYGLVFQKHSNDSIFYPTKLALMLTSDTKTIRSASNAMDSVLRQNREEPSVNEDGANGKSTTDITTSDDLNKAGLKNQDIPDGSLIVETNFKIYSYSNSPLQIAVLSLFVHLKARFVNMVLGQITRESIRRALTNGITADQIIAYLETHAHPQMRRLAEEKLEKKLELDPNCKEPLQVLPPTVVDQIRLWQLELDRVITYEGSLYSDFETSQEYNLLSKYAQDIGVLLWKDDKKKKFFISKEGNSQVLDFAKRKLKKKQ
Experiment: cryo-EM structure; PIC-nucleosome complex A, without NTPs; PIC assembled in vitro on nucleosomal 209 bp His4 promoter/Widom-601 scaffold, GraFix (15-40% sucrose, 0-0.1% glutaraldehyde); overall 3.3 Å
Settings: both partners purified

binding result: binds
B1: Tfb5, subunit of TFIIH (natural protein, S. cerevisiae)
chain: MARARKGALVQCDPSIKALILQIDAKMSDIVLEELDDTHLLVNPSKVEFVKHELNRLLSKNIYNPMDEEENQ
notes: Tfb5, subunit of S. cerevisiae TFIIH; Stood in the assay as a subunit of TFIIH
